Target: HAstV8 spike protein VP25 (residues S484 to R708) (human astrovirus 8 (HAstV8))
Experiment: BLI

Chain of neonatal Fc receptor (FcRn), recombinant ectodomains (P55899 24-297): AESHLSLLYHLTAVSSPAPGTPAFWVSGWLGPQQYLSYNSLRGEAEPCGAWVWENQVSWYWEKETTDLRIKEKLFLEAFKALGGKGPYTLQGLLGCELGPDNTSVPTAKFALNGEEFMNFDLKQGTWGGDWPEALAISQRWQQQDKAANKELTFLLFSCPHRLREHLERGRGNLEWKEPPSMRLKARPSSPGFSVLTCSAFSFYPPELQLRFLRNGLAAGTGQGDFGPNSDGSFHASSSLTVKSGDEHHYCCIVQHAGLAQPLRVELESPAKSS
Chain of neonatal Fc receptor (FcRn), recombinant ectodomains (P61769 21-119): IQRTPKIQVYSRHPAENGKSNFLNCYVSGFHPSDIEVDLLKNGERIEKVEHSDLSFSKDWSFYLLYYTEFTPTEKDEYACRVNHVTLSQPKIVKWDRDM
Chain of HAstV8 spike protein VP25 (residues S484 to R708) (human astrovirus 8 (HAstV8)) (Q9IFX1 424-648 limits assumed): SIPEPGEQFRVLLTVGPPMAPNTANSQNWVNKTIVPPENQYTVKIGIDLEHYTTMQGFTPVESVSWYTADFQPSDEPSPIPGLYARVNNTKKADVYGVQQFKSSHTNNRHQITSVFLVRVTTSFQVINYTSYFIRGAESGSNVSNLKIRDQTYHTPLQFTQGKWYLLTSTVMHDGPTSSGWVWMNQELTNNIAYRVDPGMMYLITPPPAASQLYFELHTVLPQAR

Question: Which results are given for “neonatal Fc receptor (FcRn), recombinant ectodomains (from UniProt P55899;P61769) (complex)”?
Answer: Kd: 623 nM; half-life: 4.68 s
